Assay results: patent US20090004680A1

Molecular target: Mouse synaptosomes (BoNT/A acceptor on a mouse synaptosome preparation)

Inactivated BoNT/A (toxoid) (from UniProt P0DPI0 2-1296)
maximum percent inhibition: 98%
